According to paper PMC5356841:

How the values were obtained:
[1] = molecular target: individual catalytic domain of human MT2-MMP (human)
[2] = molecular target: individual catalytic domain of human MT3-MMP (human)
[3] = molecular target: individual catalytic domain of human MT4-MMP (human)
[4] = molecular target: individual catalytic domain of human MT5-MMP (human)
[5] = molecular target: individual catalytic domain of human MT6-MMP (human)
Chain of individual catalytic domain of human MT6-MMP (human) (Q9NPA2 22-562): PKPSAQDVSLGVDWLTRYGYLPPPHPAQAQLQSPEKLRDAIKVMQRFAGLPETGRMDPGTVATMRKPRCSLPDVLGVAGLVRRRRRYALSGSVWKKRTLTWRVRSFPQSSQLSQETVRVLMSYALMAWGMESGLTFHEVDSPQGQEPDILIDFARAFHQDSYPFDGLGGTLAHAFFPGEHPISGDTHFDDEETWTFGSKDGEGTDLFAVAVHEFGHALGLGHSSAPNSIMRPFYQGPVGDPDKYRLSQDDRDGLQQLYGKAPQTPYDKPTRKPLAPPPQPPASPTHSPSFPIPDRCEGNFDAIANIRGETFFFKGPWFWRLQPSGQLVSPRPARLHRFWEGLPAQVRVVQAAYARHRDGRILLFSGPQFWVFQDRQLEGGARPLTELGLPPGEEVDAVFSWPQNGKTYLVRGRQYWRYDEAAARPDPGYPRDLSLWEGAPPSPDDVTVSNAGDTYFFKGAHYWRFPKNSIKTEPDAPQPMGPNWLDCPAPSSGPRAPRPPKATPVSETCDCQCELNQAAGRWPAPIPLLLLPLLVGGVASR

Chain of individual catalytic domain of human MT2-MMP (human) (P51511 42-669): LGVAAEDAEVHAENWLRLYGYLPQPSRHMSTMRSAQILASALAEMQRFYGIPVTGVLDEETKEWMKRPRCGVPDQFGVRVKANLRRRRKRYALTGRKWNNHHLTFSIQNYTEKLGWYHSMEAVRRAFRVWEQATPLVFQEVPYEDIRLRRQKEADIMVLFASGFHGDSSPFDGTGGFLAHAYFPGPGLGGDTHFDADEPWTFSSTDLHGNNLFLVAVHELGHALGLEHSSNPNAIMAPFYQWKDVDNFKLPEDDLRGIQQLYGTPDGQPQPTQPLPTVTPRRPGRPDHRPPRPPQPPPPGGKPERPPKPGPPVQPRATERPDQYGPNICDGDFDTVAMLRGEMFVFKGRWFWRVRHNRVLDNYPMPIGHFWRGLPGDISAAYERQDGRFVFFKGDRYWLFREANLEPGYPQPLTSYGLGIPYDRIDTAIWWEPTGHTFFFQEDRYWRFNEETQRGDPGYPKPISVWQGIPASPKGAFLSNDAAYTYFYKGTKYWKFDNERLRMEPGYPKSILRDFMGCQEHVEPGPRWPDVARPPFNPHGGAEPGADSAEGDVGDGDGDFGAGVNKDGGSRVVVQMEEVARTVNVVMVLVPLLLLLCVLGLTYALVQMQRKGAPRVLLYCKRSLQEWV
Chain of individual catalytic domain of human MT4-MMP (human) (Q9ULZ9 36-603): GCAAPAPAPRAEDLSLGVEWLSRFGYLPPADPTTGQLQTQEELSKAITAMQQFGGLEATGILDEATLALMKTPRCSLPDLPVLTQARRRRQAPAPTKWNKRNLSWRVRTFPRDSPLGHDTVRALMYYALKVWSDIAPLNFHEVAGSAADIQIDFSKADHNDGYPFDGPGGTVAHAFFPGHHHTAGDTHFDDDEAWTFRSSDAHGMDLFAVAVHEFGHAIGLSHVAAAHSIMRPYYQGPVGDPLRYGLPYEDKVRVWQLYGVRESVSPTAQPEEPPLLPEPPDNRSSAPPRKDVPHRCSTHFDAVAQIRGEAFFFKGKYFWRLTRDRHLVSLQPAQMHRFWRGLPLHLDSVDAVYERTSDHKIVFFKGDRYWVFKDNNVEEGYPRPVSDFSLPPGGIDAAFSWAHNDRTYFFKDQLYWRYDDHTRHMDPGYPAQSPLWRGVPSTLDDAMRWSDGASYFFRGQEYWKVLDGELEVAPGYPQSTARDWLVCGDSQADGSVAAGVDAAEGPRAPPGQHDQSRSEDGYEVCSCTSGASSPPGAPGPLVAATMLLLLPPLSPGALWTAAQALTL
Chain of individual catalytic domain of human MT5-MMP (human) (Q9Y5R2 53-645): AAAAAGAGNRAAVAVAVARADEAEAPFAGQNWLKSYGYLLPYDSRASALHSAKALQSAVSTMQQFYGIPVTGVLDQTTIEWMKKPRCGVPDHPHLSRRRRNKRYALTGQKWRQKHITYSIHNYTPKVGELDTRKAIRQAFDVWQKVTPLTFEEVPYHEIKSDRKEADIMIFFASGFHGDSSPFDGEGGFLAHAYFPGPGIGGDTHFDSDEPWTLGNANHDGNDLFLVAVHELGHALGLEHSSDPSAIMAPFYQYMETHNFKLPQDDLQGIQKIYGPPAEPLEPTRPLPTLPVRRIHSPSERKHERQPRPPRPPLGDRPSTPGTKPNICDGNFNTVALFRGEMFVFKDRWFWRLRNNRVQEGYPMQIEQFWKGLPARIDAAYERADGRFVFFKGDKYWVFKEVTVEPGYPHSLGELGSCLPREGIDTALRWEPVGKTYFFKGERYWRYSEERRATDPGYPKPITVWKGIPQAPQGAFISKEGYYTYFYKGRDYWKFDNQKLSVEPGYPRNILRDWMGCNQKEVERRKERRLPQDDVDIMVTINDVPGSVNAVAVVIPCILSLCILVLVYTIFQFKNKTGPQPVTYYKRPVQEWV
Chain of individual catalytic domain of human MT3-MMP (human) (P51512 32-607): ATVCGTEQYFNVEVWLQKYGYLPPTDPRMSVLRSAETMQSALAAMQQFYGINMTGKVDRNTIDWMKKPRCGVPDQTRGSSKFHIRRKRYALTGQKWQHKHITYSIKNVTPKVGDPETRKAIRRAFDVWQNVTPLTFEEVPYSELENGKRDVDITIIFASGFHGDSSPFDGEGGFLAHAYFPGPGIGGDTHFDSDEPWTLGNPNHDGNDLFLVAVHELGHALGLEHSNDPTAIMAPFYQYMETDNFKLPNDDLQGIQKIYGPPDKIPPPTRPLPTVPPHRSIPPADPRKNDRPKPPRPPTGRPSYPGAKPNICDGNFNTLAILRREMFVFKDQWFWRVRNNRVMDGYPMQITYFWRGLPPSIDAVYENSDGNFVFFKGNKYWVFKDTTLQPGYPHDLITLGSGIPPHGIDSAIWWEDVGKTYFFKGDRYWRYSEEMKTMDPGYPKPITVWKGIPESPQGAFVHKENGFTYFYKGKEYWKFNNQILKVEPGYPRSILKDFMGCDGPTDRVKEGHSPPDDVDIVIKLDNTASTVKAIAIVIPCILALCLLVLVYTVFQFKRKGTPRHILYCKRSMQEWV

- IC50 of inhibition of the CAT of MT2-MMP (5 nM), cleavage of Mca-PLGL-Dpa-AR-NH2 (1 uM); 3A2 Fab 0-5,000 nM [1]: 1800 nM
- IC50 of inhibition of the CAT of MT3-MMP (5 nM), cleavage of Mca-PLGL-Dpa-AR-NH2 (1 uM); 3A2 Fab 0-5,000 nM [2]: 335 nM
- IC50 of inhibition of the CAT of MT4-MMP (5 nM), cleavage of Mca-PLGL-Dpa-AR-NH2 (1 uM); 3A2 Fab 0-5,000 nM [3]: > 5000 nM
- IC50 of inhibition of the CAT of MT5-MMP (5 nM), cleavage of Mca-PLGL-Dpa-AR-NH2 (1 uM); 3A2 Fab 0-5,000 nM [4]: 425 nM
- IC50 of inhibition of the CAT of MT6-MMP (5 nM), cleavage of Mca-PLGL-Dpa-AR-NH2 (1 uM); 3A2 Fab 0-5,000 nM [5]: > 5000 nM
B1: 3A2 Fab (Fab, V domains shown)
VH: EVQLVESGGGLVQPGGSLRLSCAASGFNLSSSSMHWVRQAPGKGLEWVASIYPSYSYTYYADSVKGRFTISADTSKNTAYLQMNSLRAEDTAVYYCARVKLQKDKSHQWIRNLVATPYGRYVMDYWGQGTLVTVSS
VL: DIQMTQSPSSLSASVGDRVTITCRASQSVSSAVAWYQQKPGKAPKLLIYSASSLYSGVPSRFSGSRSGTDFTLTISSLQPEDFATYYCQQYGYPITFGQGTKVEIK
